B1: HDV Ribozyme (parent)
chain: GGCCGGCAUGGUCCCAGCCUCCUCGCUGGCGCCGGCUGGGCAACAUUCCGAGGGGACCGUCCCCUCGGUAAUGGCGAAUGGGACCCA

Variants of: B1
Assay: self-cleavage, relative activity (ratio to wild type); higher = more cleavage; co-transcriptional

| Variant | self-cleavage |
| --- | --- |
| GGCCGGCAUGGCCCCAGCCUCCUCGCUGGCGCCGGCUGGGCAACAUUCCGAGGGGACCGUCCCUUCGGUAAUGGCGAAUGGGACCCA | 0.665 |
| GGCCGGGAUGGUCCCAGCCUCCUCGCUGGCGCCGGCUGGGCAACAUUCCGAGGGGACCGUCCCCUCGGUAAUGGCGAAUCGGACCCA | 0 |
| GGCCGGCACGGUCCAAGCCUCCUCGCUGGCGCCGGCUGGGCAACAUUCCGAGGGGACCGUCCCCUCGGUAAUGGCGAAUGGGACCCA | 0.748 |
| GGCCGGCAUGGUCCCAGCCUCCUCGCUGGCGCCGGCUGGGCAACAUUCCGAGGGGACCUUCCCCUCGGUAAUGGCUAAUGGGACCCA | 1.08 |
| GGCCGGCAUGGUCCCAGCCUCCUCGCUGGCGCCGGCGGGGCAACAUUCCGAGGGGACCGUCCCCUCGGCAAUGGCGAAUGGGACCCA | 0.128 |
| GGCCGGCAUGGUCCCACCCUCCUCGCUGGCGCCGGCUGGGCAACAUUCCGAGUGGACCGUCCCCUCGGUAAUGGCGAAUGGGACCCA | 0.298 |
| CGCCGGCAUGGUCCCAGCCUCCUCGCUGGCGCCGGCUGGGCAACAUUCCGAGGGGACCGUCUCCUCGGUAAUGGCGAAUGGGACCCA | 0.282 |
| GGCCGGCAUGGUCCCAGCCUCCUCGCAGGCGCCGGCUGGGCAACAUGCCGAGGGGACCGUCCCCUCGGUAAUGGCGAAUGGGACCCA | 0.89 |
| GGCCGGCAUGGUCCCAGCCUCCUCGCUGGCGCCGGCUGGGCAACAUUCCGAGUGGACCGUCCCCUCGGUAAUGGCGAAGGGGACCCA | 0.405 |
| GGCCGGCAUGGUCCCAGCCUCCUCGCUGGCGCCGGCUGGGCACCAUUCCGAGGGGACCGUCCCCUCGGUAAUGGCGAAUGCGACCCA | 0.0773 |
| GGCCGGCAUAGUCCCAGCCUCCUCGCUGGCGCCGGCUGGGCAACAUUCCGAGGGGACCAUCCCCUCGGUAAUGGCGAAUGGGACCCA | 0.853 |
| GGCCGGCAUGGUCCCAGCCUCCUCGCUGGAGCCGGCUGGGCAACAUUCCGAGGCGACCGUCCCCUCGGUAAUGGCGAAUGGGACCCA | 0.519 |
| GGCCGGCAAGGUCCCAGCCUCCUCGCGGGCGCCGGCUGGGCAACAUUCCGAGGGGACCGUCCCCUCGGUAAUGGCGAAUGGGACCCA | 1.13 |
| GGCCGGCAUGGUCCCAGCCUCCUCGCUGGCGCCGGCUGGGCAACAUCCCGAGGGGACCGUGCCCUCGGUAAUGGCGAAUGGGACCCA | 0.65 |
| GGCCGGCAUGGUCCCAGCCUCCUCGCUGGCGCCGGCUGGGCAACAUUCCGAGGGGACCGUCCCCUCGGUAAUAGCGAAUGGUACCCA | 0.151 |
| GGCCGGCAUGGUCCCAGCCUCCUCGCUGGCGCCGGCUGGGCAACAUUCCGAGGCUACCGUCCCCUCGGUAAUGGCGAAUGGGACCCA | 1.05 |
| GGCCGGCAUGGUCCCAGCCUCCUCGCUGGCGCCGGCUGGGGAACAUUCCGAGGGGACCGUCCCCUCGGUAAUGACGAAUGGGACCCA | 0.486 |
| GGCCGGAAUGGUCCCAGCCUCCACGCUGGCGCCGGCUGGGCAACAUUCCGAGGGGACCGUCCCCUCGGUAAUGGCGAAUGGGACCCA | 0.739 |
| GGCCGGCAUGAUCCCAGCCUCCUCGCUGGCGCCGGCUGGGCAACAUUCCGAGGGGACCGUCCCCUCUGUAAUGGCGAAUGGGACCCA | 0.237 |
| GGGCGGCAUGGUCCCAGCCUCAUCGCUGGCGCCGGCUGGGCAACAUUCCGAGGGGACCGUCCCCUCGGUAAUGGCGAAUGGGACCCA | 0.119 |
| GGCCGGCAUGGUCCCAGCCUCCUCGCUGGCGCCGGCUGGGCAAUAUUCCGCGGGGACCGUCCCCUCGGUAAUGGCGAAUGGGACCCA | 0.931 |
| GGCCGGCAUGGUCCCAGCCUCCUCGCUGGCGCCGGCUGGGCAACAGUCCGAGGGGACCGUCCCCUCGGUAAUUGCGAAUGGGACCCA | 0.514 |

| Variant | self-cleavage |
| --- | --- |
| GGCCGUCAUGGCCCCAGCCUCCUCGCUGGCGCCGGCUGGGCAACAUUCCGAGGGGACCGUCCCCUCGGUAAUGGCGAAUGGGACCCA | 0.0573 |
| GGCCGGCAUGGUCCCAGCCUCCUCGCUGGCGCCGGCUGGGCAACAUUCCGAGGGGACCGUCCCCUCGGUAAUCGCGAAUGGCACCCA | 0.175 |
| GGCCGGCAUGGUCCCAGCCUCCUCGCUGGCGCCGGAUGGGCAACAUUCCGAGGGGACCGUCCCCUCGGUAAUGGCGAAUGAGACCCA | 0.138 |
| GGCCGGCAUGGUCCCAGCCUCCUCGCUGGCGCCGGCUGGGCAACAUUCCGAGGGGACCUUCCCCUCGGUAAUGGCGAAUGGGAGCCA | 0.731 |
| GGCAGGCAUGGUCCCAGGCUCCUCGCUGGCGCCGGCUGGGCAACAUUCCGAGGGGACCGUCCCCUCGGUAAUGGCGAAUGGGACCCA | 0.166 |
| GGCCGGCAUGGUCCCAGCCUCCUCGCUGGCGCCGGCUGGGCAACAUUCCGAGGGGACCGUCUCCUCGGUAAUGGGGAAUGGGACCCA | 0.406 |
| GGCCGGCAUGGUCCCAGCCAUCUCGCUGGCGCCGGCUGGGCAACAUUCCGAGGGGACCGUCCCCUCGGUAAUGGCGAAUGGGACCCA | 0.0898 |
| GGCCGGCAUGGUACCAGCCUCCUCGCUGGCGCCGGCUGGGCAACAUUCCGAGGGGACCGUCCCCUCGGUAAUGGCGAAUGGGAUCCA | 0.227 |
| GGCCGGCAUGGUCCCAGCCUCCUCGCUGGCGCAGGCUGGGCAACAUUCCGAGGGGACCCUCCCCUCGGUAAUGGCGAAUGGGACCCA | 0.521 |
| GGCCGGCAUGGUCCCAGCCUCCUCGCUGGCGCCGGCUGGGCAACAUUCCGAGGGGACCGUCCCCUCGGUAAAGGCGAAUGGGACACA | 0.399 |
| GGCCGGCAUGGUCCCAGCCUCCUCGCUGGCGCCGGCUGGGCAACAUUCCGAGGGGACCGUCCCCUCGGUAAUGGCGAGUAGGACCCA | 0.242 |
| GGCCGGCAUGGUCCCAGCCUCCGCGCUGGCGCCGGCUGGGCAACAUUCCGAGGGGACCGUCCCCUCGGUAAUGGCGUAUGGGACCCA | 0.237 |
| GGCCGGCAUGGUCCCAGCCUCCUCGCUGGCGCCGGCUGGGCAACAUUCCGAGGGGACCGUGCCCUCGGUAAUGGCGACUGGGACCCA | 0.177 |
| GGCCGGCAUGGUCCCAGCCUCCGCGCUGGCGCCGGCUGGGCAACAUUCCGAGGGGACCGUCCCCUCGGUAAUGGCGAAUGGGAUCCA | 0.342 |
| GGCCGGCAUGGUCCCAGCCUCCUCGCUGGCGCCGCCUGGGCAACAUUCCGAGGGUACCGUCCCCUCGGUAAUGGCGAAUGGGACCCA | 0.0615 |
| GGCCGGCAUGGUCCCAGCCUCCUCGCUGGCGCCGGCUGGGCAACAUUCCGACGGGACCUUCCCCUCGGUAAUGGCGAAUGGGACCCA | 0.962 |
| GGCCGGCAUGGUCCCAGCCUCCUCGCUGGCGCCGGCUGGGCAACAUUCCGAGGGGACCGUCUCCUCGGUAAUGGCGAAUUGGACCCA | 0.253 |
| GGCCGGCAUGCUCCCAGCCUCCUCGCUGGCGCCGGCUGGGCAACAUUCCGAGGGGACCGUCCCCUCGGUAAUGGCGAAUGGGACCCA | 0.314 |
| GGCCGGCAUGGUCCCAGCCUCCUCGCUGGCGCCGGCUGGGCAACAUUCCGAGGGGUCCGUCCCCACGGUAAUGGCGAAUGGGACCCA | 1 |
| GGCCGGCAUGGUCCCAGUCUCCUCGCUGGCGCCGGCUGGGCAACAUUCCGAGGGGACCGUCACCUCGGUAAUGGCGAAUGGGACCCA | 0.599 |
| GGCCGGCAUGGUCCCAGCCUCCUCGCUGGCGCCGGUUGGGCAACAUUCCGAGGGGACCGUCCCCUCGGUAAUGGCGAAUGGAACCCA | 0.327 |
| GGCCGGCAUGGUCCCAGCCUCCUCGCUGGCGCCGGCUGGGCAACAUUCCGAGGGGACCGUCCCCGCAGUAAUGGCGAAUGGGACCCA | 0.812 |

| Variant | self-cleavage |
| --- | --- |
| GGCCGGCAUGGUCCCAGCCUCCUCGCUGGCGCCGGCUGGGCAACAUUCCGAGGGGACCGUCCCCUCGGUAAUGGUGAAUGGGAACCA | 0.237 |
| GGCCGGCAUGGUCCCAGCCCCCUCGCUGGCGCCGGCUGGGCAACAUUCCGCGGGGACCGUCCCCUCGGUAAUGGCGAAUGGGACCCA | 0.287 |
| GGCCGGCAUGGUCCCAGCCUCCUCGCUGGCGCCGGCUGGGCAACAUUCCGAGGGGACCGUCCCCUCGGUAAUCGCGAUUGGGACCCA | 0.155 |
| GGCCGGCAUGGUCCCAGCCUCCUCGCAGGCGCCGUCUGGGCAACAUUCCGAGGGGACCGUCCCCUCGGUAAUGGCGAAUGGGACCCA | 0.201 |
| GGCCGGCAUGGUCCCAGCCUCCUCGCUGGUGCCGGCUGGGCAACAUUCCGAGGGGACCGUCCCCUCGGUAAUGGCUAAUGGGACCCA | 0.805 |
| GGCCGGCAUGGUCCCAGCCUCCUCGCUGUCGCCGGCUGGGCAACAUUCCGAGGGGACCGUCCCCUCGGGAAUGGCGAAUGGGACCCA | 0.0615 |
| GGCCGGCAUGGUCCCAGCCUCCUCGCUGGUGCCGGCUGGGCAACAUUUCGAGGGGACCGUCCCCUCGGUAAUGGCGAAUGGGACCCA | 0.506 |
| GGCCGGCAUGGUCCCAGCCUCCUCGCUGACGCCGGCUGGGCAACAUACCGAGGGGACCGUCCCCUCGGUAAUGGCGAAUGGGACCCA | 0.148 |
| GGCCGGCAUGGGCCCAGCCUCCUCGCUGGCGCCGGCUGGGCAACAUUCCGAGGGGACCGUCACCUCGGUAAUGGCGAAUGGGACCCA | 1.06 |
| GCCCGGCAUGGUCCCAGCCUCCUCGCUGGCGCCGGCUGGGCAACAUUCCGAGGGGACCGUCCCCUCGGUAGUGGCGAAUGGGACCCA | 0.021 |
| GGCCGGCAUGGUCCCAGCCUCCUCGCUGGCGCGGGCAGGGCAACAUUCCGAGGGGACCGUCCCCUCGGUAAUGGCGAAUGGGACCCA | 0.225 |
| GGCCCGCAUGGUCCAAGCCUCCUCGCUGGCGCCGGCUGGGCAACAUUCCGAGGGGACCGUCCCCUCGGUAAUGGCGAAUGGGACCCA | 0.262 |
| GGGCGGCAUGGUCCCAGCCUCCUCGCUUGCGCCGGCUGGGCAACAUUCCGAGGGGACCGUCCCCUCGGUAAUGGCGAAUGGGACCCA | 0.0357 |
| GCCCGGCAUGGUCCCAGCCUCCUCGCUGGCGCCGGCUGGGCAACAUUCCGAGGGGACCGUCCCCUCGGUAAUGGCGAAUGGGACCCU | 0.0825 |
| GGCCGGCAUGGUCCCAGCCUCCUCGCUGGCGCCGGCUGGGCAACAUUCCGAGGGGACGGUCCCCUCGGUAAUGGCGAAUGGGGCCCA | 0.633 |
| GGCCGUCAUGGUCCCAGCCUCCUCGCUGGCGCCGGCUGGGCAACAUUCCGAGGGGACCGUCCCAUCGGUAAUGGCGAAUGGGACCCA | 0.415 |
| GGCCGGCAUGGUCCCAGCCUCCUCGCUGGCGCCGGCUCGCCAACAUUCCGAGGGGACCGUCCCCUCGGUAAUGGCGAAUGGGACCCA | 0.0405 |
| GGCCGGCAUGGUCCCAGCCUCCUCGCCGGCGCCGGCUGGGCAACAUUCCGAGGGGACCGUCCCCUCGGUAAUGGCGAAUGGAACCCA | 0.396 |
| GGCCGGCAUGGUCCCAGCCUCCUCGCUGGCGCCGGGUGGGCUACAUUCCGAGGGGACCGUCCCCUCGGUAAUGGCGAAUGGGACCCA | 0.113 |
| GGCCGGCAUGGUCCCACCCUCCUCGCUGGCGCCGGCUGGGCCACAUUCCGAGGGGACCGUCCCCUCGGUAAUGGCGAAUGGGACCCA | 0.0723 |
